Measurements published in article PMC9482650, “Quantitative fragmentomics allow affinity mapping of interactomes” (Nature Communications, 2022).

Legend:
Experiment in all cases: holdup assay
Parameters in all cases: key: below the threshold = too weak to quantify, mostly under pKd 3.1 to 4
CARD11, Q9BXL7 = molecular target: T1, CARD11, Q9BXL7
T1 sequence (Q9BXL7 662-765, limits assumed, looked up): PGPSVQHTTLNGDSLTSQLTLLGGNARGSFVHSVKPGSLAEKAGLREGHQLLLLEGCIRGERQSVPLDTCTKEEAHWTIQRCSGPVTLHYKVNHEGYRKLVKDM

DFNB31_3, Q9P202 = molecular target: T2, DFNB31_3, Q9P202
T2 sequence (Q9P202 811-907, limits assumed, looked up): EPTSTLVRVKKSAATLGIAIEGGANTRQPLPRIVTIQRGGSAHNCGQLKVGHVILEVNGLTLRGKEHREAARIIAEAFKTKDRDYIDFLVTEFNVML

DLG1_3, Q12959 = molecular target: DLG1_3, Q12959
DLG2_3, Q15700 = molecular target: DLG2_3, Q15700
FRMPD2_3, Q68DX3 = molecular target: FRMPD2_3, Q68DX3
GOPC, Q9HD26 = molecular target: GOPC, Q9HD26
GORASP1, Q9BQQ3 = molecular target: GORASP1, Q9BQQ3
GRASP, Q7Z6J2 = molecular target: GRASP, Q7Z6J2
GRIP1_4, Q9Y3R0 = molecular target: T3, GRIP1_4, Q9Y3R0
T3 sequence (Q9Y3R0 467-571, limits assumed, looked up): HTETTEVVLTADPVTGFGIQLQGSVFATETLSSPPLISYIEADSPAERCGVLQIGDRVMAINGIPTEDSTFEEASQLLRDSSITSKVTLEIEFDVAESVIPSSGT

GRIP1_7, Q9Y3R0 = molecular target: T4, GRIP1_7, Q9Y3R0
T4 sequence (Q9Y3R0 999-1096, limits assumed, looked up): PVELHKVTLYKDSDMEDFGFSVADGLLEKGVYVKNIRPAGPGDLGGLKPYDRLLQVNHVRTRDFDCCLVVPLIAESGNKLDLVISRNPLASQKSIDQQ

GRIP2_4, Q9C0E4 = molecular target: GRIP2_4, Q9C0E4
GRIP2_6, Q9C0E4 = molecular target: GRIP2_6, Q9C0E4
HTRA3, P83110 = molecular target: T5, HTRA3, P83110
T5 sequence (P83110 354-453, limits assumed, looked up): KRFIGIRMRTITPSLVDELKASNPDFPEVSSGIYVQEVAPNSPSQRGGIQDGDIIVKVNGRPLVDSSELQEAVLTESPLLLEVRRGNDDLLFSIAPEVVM

IL16_3, Q14005 = molecular target: IL16_3, Q14005
Inadl_10, Q8NI35 = molecular target: Inadl_10, Q8NI35
Inadl_2, Q8NI35 = molecular target: Inadl_2, Q8NI35
Inadl_6, Q8NI35 = molecular target: Inadl_6, Q8NI35
LRRC7, Q96NW7 = molecular target: T6, LRRC7, Q96NW7
T6 sequence (Q96NW7 1440-1537, limits assumed, looked up): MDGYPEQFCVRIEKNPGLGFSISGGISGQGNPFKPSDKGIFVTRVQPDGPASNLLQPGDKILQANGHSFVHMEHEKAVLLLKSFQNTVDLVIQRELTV

MAGI3_2, Q5TCQ9 = molecular target: MAGI3_2, Q5TCQ9
NHERF3_3, Q5T2W1 = molecular target: T7, NHERF3_3, Q5T2W1
T7 sequence (Q5T2W1 238-333, limits assumed, looked up): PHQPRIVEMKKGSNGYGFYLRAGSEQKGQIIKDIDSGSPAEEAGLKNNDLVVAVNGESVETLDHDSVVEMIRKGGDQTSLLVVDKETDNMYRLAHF

RHPN1, Q8TCX5 = molecular target: T8, RHPN1, Q8TCX5
T8 sequence (Q8TCX5 508-602, limits assumed, looked up): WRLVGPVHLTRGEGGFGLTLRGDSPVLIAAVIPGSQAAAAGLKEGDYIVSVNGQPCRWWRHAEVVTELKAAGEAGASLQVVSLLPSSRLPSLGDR

SCRIB_1, Q14160 = molecular target: SCRIB_1, Q14160
SNTA1, Q13424 = molecular target: T9, SNTA1, Q13424
T9 sequence (Q13424 82-180, limits assumed, looked up): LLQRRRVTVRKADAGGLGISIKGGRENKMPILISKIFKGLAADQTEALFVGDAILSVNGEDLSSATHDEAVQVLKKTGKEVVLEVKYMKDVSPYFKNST

SNTB1, Q13884 = molecular target: T10, SNTB1, Q13884
T10 sequence (Q13884 107-205, limits assumed, looked up): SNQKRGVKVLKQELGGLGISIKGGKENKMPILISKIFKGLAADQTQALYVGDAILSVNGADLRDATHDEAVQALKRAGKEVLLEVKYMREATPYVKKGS

SNX27, Q96L92 = molecular target: SNX27, Q96L92
TIAM2, Q8IVF5 = molecular target: T11, TIAM2, Q8IVF5
T11 sequence (Q8IVF5 885-986, limits assumed, looked up): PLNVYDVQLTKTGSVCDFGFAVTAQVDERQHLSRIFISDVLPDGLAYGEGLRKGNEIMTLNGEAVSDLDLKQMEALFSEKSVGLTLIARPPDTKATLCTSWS

[1] = plain residues with an end cap or a label only (N-terminal biotin on a linker: ado-ado)
[2] = plain residues with an end cap or a label only (N-terminal biotin on a linker: ahx)

GRIP2_6, Q9C0E4, sequence (Q9C0E4 648-740): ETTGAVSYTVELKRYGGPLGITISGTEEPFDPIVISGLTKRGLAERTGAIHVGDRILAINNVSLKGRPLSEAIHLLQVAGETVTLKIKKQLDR
GRIP2_4, Q9C0E4, sequence (Q9C0E4 446-548): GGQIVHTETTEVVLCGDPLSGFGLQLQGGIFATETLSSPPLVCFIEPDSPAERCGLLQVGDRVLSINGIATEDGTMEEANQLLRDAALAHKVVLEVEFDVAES
SCRIB_1, Q14160, sequence (Q14160 718-814): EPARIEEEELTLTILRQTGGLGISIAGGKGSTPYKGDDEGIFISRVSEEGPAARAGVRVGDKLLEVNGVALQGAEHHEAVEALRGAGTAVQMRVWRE
Inadl_6, Q8NI35, sequence (Q8NI35 1058-1167): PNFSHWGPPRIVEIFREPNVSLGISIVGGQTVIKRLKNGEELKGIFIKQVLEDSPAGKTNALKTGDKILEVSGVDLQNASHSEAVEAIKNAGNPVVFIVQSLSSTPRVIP
Inadl_2, Q8NI35, sequence (Q8NI35 238-335): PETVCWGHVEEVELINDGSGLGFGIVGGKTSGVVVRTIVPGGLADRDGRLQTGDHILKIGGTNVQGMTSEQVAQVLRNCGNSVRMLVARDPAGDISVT
DLG1_3, Q12959, sequence (Q12959 457-571): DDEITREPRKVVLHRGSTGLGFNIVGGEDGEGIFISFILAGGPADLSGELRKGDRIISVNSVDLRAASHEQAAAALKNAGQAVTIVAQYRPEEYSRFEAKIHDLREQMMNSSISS
Inadl_10, Q8NI35, sequence (Q8NI35 1673-1763): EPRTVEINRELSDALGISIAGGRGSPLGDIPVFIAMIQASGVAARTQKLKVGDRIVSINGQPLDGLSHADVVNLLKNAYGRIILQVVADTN
MAGI3_2, Q5TCQ9, sequence (Q5TCQ9 398-503): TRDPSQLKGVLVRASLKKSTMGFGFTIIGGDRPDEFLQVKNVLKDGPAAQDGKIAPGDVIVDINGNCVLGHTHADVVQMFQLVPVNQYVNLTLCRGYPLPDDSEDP
GORASP1, Q9BQQ3, sequence (Q9BQQ3 1-208): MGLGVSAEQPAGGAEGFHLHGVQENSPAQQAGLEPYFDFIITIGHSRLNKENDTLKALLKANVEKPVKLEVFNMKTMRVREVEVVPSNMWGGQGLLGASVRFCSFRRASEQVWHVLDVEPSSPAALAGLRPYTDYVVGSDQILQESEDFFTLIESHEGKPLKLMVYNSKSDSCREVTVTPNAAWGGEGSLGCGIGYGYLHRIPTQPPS
IL16_3, Q14005, sequence (Q14005 1107-1207): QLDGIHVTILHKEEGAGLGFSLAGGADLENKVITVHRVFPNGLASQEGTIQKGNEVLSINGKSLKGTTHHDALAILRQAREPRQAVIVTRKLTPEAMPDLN
FRMPD2_3, Q68DX3, sequence (Q68DX3 1073-1166): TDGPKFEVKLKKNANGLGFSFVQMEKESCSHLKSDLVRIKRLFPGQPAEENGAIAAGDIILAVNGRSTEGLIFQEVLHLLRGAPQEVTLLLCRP
GRASP, Q7Z6J2, sequence (Q7Z6J2 96-193): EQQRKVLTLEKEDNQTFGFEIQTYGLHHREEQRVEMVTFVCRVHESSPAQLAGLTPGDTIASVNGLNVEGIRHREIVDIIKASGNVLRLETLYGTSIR

B1: OR8G1, Q15617 (peptide)
chain: KKMLQRRTLL
- pKd (CARD11, Q9BXL7; [1]): below the threshold
- pKd (DFNB31_3, Q9P202; [1]): 4.08
- pKd (DLG1_3, Q12959; [1]): below the threshold
- pKd (DLG2_3, Q15700; [1]): below the threshold
- pKd (FRMPD2_3, Q68DX3; [1]): below the threshold
- pKd (GOPC, Q9HD26; [1]): 3.89
- pKd (GORASP1, Q9BQQ3; [1]): 4.06
- pKd (GRASP, Q7Z6J2; [1]): 5.05
- pKd (GRIP1_4, Q9Y3R0; [1]): below the threshold
- pKd (GRIP1_7, Q9Y3R0; [1]): below the threshold
- pKd (GRIP2_4, Q9C0E4; [1]): below the threshold
- pKd (GRIP2_6, Q9C0E4; [1]): below the threshold
- pKd (HTRA3, P83110; [1]): below the threshold
- pKd (IL16_3, Q14005; [1]): below the threshold
- pKd (Inadl_10, Q8NI35; [1]): below the threshold
- pKd (Inadl_2, Q8NI35; [1]): below the threshold
- pKd (Inadl_6, Q8NI35; [1]): below the threshold
- pKd (LRRC7, Q96NW7; [1]): below the threshold
- pKd (MAGI3_2, Q5TCQ9; [1]): 4.55
- pKd (NHERF3_3, Q5T2W1; [1]): 3.77
- pKd (RHPN1, Q8TCX5; [1]): below the threshold
- pKd (SCRIB_1, Q14160; [1]): 3.71
- pKd (SNTA1, Q13424; [1]): 3.58
- pKd (SNTB1, Q13884; [1]): 3.64
- pKd (SNX27, Q96L92; [1]): 3.75
- pKd (TIAM2, Q8IVF5; [1]): below the threshold

B2: ACE2, Q9BYF1 (peptide)
chain: QNTDDVQTSF
- pKd (CARD11, Q9BXL7; [2]): below the threshold
- pKd (DFNB31_3, Q9P202; [2]): below the threshold
- pKd (DLG1_3, Q12959; [2]): below the threshold
- pKd (DLG2_3, Q15700; [2]): below the threshold
- pKd (FRMPD2_3, Q68DX3; [2]): below the threshold
- pKd (GOPC, Q9HD26; [2]): below the threshold
- pKd (GORASP1, Q9BQQ3; [2]): below the threshold
- pKd (GRASP, Q7Z6J2; [2]): 4.29
- pKd (GRIP1_4, Q9Y3R0; [2]): below the threshold
- pKd (GRIP1_7, Q9Y3R0; [2]): below the threshold
- pKd (GRIP2_4, Q9C0E4; [2]): below the threshold
- pKd (GRIP2_6, Q9C0E4; [2]): below the threshold
- pKd (HTRA3, P83110; [2]): below the threshold
- pKd (IL16_3, Q14005; [2]): below the threshold
- pKd (Inadl_10, Q8NI35; [2]): below the threshold
- pKd (Inadl_2, Q8NI35; [2]): below the threshold
- pKd (Inadl_6, Q8NI35; [2]): below the threshold
- pKd (LRRC7, Q96NW7; [2]): below the threshold
- pKd (MAGI3_2, Q5TCQ9; [2]): below the threshold
- pKd (NHERF3_3, Q5T2W1; [2]): below the threshold
- pKd (RHPN1, Q8TCX5; [2]): 4.38
- pKd (SCRIB_1, Q14160; [2]): below the threshold
- pKd (SNTA1, Q13424; [2]): below the threshold
- pKd (SNTB1, Q13884; [2]): below the threshold
- pKd (SNX27, Q96L92; [2]): 4.95
- pKd (TIAM2, Q8IVF5; [2]): below the threshold

B3: MYOT, Q9UBF9 (peptide)
chain: QSGLYESEEL
- pKd (CARD11, Q9BXL7; [1]): below the threshold
- pKd (DFNB31_3, Q9P202; [1]): 3.5
- pKd (DLG1_3, Q12959; [1]): below the threshold
- pKd (DLG2_3, Q15700; [1]): 3.88
- pKd (FRMPD2_3, Q68DX3; [1]): below the threshold
- pKd (GOPC, Q9HD26; [1]): below the threshold
- pKd (GORASP1, Q9BQQ3; [1]): below the threshold
- pKd (GRASP, Q7Z6J2; [1]): 4.09
- pKd (GRIP1_4, Q9Y3R0; [1]): below the threshold
- pKd (GRIP1_7, Q9Y3R0; [1]): below the threshold
- pKd (GRIP2_4, Q9C0E4; [1]): below the threshold
- pKd (GRIP2_6, Q9C0E4; [1]): 4.67
- pKd (HTRA3, P83110; [1]): below the threshold
- pKd (IL16_3, Q14005; [1]): below the threshold
- pKd (Inadl_10, Q8NI35; [1]): below the threshold
- pKd (Inadl_2, Q8NI35; [1]): below the threshold
- pKd (Inadl_6, Q8NI35; [1]): below the threshold
- pKd (LRRC7, Q96NW7; [1]): below the threshold
- pKd (MAGI3_2, Q5TCQ9; [1]): below the threshold
- pKd (NHERF3_3, Q5T2W1; [1]): below the threshold
- pKd (RHPN1, Q8TCX5; [1]): below the threshold
- pKd (SCRIB_1, Q14160; [1]): 3.76
- pKd (SNTA1, Q13424; [1]): below the threshold
- pKd (SNTB1, Q13884; [1]): below the threshold
- pKd (SNX27, Q96L92; [1]): below the threshold
- pKd (TIAM2, Q8IVF5; [1]): 4.19

B4: CACNA1A, O00555 (peptide)
chain: PYSESDDDWC
- pKd (CARD11, Q9BXL7; [1]): below the threshold
- pKd (DFNB31_3, Q9P202; [1]): 3.6
- pKd (DLG1_3, Q12959; [1]): below the threshold
- pKd (DLG2_3, Q15700; [1]): 3.7
- pKd (FRMPD2_3, Q68DX3; [1]): below the threshold
- pKd (GOPC, Q9HD26; [1]): below the threshold
- pKd (GORASP1, Q9BQQ3; [1]): below the threshold
- pKd (GRASP, Q7Z6J2; [1]): below the threshold
- pKd (GRIP1_4, Q9Y3R0; [1]): below the threshold
- pKd (GRIP1_7, Q9Y3R0; [1]): below the threshold
- pKd (GRIP2_4, Q9C0E4; [1]): below the threshold
- pKd (GRIP2_6, Q9C0E4; [1]): below the threshold
- pKd (HTRA3, P83110; [1]): 5.79
- pKd (IL16_3, Q14005; [1]): below the threshold
- pKd (Inadl_10, Q8NI35; [1]): below the threshold
- pKd (Inadl_2, Q8NI35; [1]): below the threshold
- pKd (Inadl_6, Q8NI35; [1]): below the threshold
- pKd (LRRC7, Q96NW7; [1]): below the threshold
- pKd (MAGI3_2, Q5TCQ9; [1]): below the threshold
- pKd (NHERF3_3, Q5T2W1; [1]): below the threshold
- pKd (RHPN1, Q8TCX5; [1]): below the threshold
- pKd (SCRIB_1, Q14160; [1]): below the threshold
- pKd (SNTA1, Q13424; [1]): below the threshold
- pKd (SNTB1, Q13884; [1]): below the threshold
- pKd (SNX27, Q96L92; [1]): 4.09
- pKd (TIAM2, Q8IVF5; [1]): 4.06

B5: PTTG2, Q9NZH5 (peptide)
chain: LPAVCYDIDI
- pKd (CARD11, Q9BXL7; [1]): below the threshold
- pKd (DFNB31_3, Q9P202; [1]): 3.9
- pKd (DLG1_3, Q12959; [1]): below the threshold
- pKd (DLG2_3, Q15700; [1]): 3.63
- pKd (FRMPD2_3, Q68DX3; [1]): below the threshold
- pKd (GOPC, Q9HD26; [1]): below the threshold
- pKd (GORASP1, Q9BQQ3; [1]): 3.89
- pKd (GRASP, Q7Z6J2; [1]): below the threshold
- pKd (GRIP1_4, Q9Y3R0; [1]): below the threshold
- pKd (GRIP1_7, Q9Y3R0; [1]): below the threshold
- pKd (GRIP2_4, Q9C0E4; [1]): below the threshold
- pKd (GRIP2_6, Q9C0E4; [1]): 4.68
- pKd (HTRA3, P83110; [1]): 3.6
- pKd (IL16_3, Q14005; [1]): below the threshold
- pKd (Inadl_10, Q8NI35; [1]): below the threshold
- pKd (Inadl_2, Q8NI35; [1]): below the threshold
- pKd (Inadl_6, Q8NI35; [1]): below the threshold
- pKd (LRRC7, Q96NW7; [1]): below the threshold
- pKd (MAGI3_2, Q5TCQ9; [1]): below the threshold
- pKd (NHERF3_3, Q5T2W1; [1]): below the threshold
- pKd (RHPN1, Q8TCX5; [1]): below the threshold
- pKd (SCRIB_1, Q14160; [1]): below the threshold
- pKd (SNTA1, Q13424; [1]): below the threshold
- pKd (SNTB1, Q13884; [1]): below the threshold
- pKd (SNX27, Q96L92; [1]): below the threshold
- pKd (TIAM2, Q8IVF5; [1]): 3.87
